Results reported in paper PMC9904299.

Molecular target: mitochondrially targeted human MSRA tagged with tGFP at its C-terminus (targeting sequence of ornithine carbamoyltransferase fused to the N-terminus of MSRA)
Experiment: co-immunoprecipitation (anti-FLAG IP, anti-tGFP blot), band intensity quantitated with Odyssey infrared scanner
Conditions: HEK293 cells; 3 separate experiments; parent: est. 100; read off a plot

Row | percent of parent | Substance
1 | 90% | FLAG-tagged human Ndufaf2 M160V
2 | 90% | FLAG-tagged human Ndufaf2 M85V
3 | 36% | FLAG-tagged human Ndufaf2 M85V; M160V
